Experimental data from PMC9303997.

What was measured:
full-length CHMP2A = target: T1, full-length CHMP2A (UniProt O43633)
T1 sequence: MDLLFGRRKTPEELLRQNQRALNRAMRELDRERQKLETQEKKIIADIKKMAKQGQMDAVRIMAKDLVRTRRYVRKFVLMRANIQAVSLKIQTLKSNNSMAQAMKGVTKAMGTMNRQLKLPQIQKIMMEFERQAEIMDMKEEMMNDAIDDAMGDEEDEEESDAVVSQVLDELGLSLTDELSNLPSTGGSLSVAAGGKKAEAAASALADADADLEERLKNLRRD

[1] = target: T2, full-length human CHMP1B with a single cysteine mutation at position 2 (CHMP1B^S2C) (human) (UniProt Q7LBR1)
T2 sequence: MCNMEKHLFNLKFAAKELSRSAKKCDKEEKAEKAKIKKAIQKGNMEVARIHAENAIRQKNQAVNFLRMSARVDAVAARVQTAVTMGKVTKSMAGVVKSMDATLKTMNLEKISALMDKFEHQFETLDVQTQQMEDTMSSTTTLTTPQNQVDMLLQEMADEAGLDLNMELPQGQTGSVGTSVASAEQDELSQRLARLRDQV

rate of ATP hydrolysis by VPS4B (malachite green; 0.2 uM enzyme, 2 uM ESCRT-III subunit, 2 mM ATP, 10 min, 37 °C) (ATP/VPS4B·min) (full-length CHMP2A): 12.7
rate of ATP hydrolysis by VPS4B (malachite green; 0.2 uM enzyme, 2 uM ESCRT-III subunit, 2 mM ATP, 10 min, 37 °C) (ATP/VPS4B·min) [1]: 3.4
B1: Human VPS4B with a single mutation at position 2 for maleimide fluorophore labeling (VPS4B^S2C) (enzyme)
chain: MCSTSPNLQKAIDLASKAAQEDKAGNYEEALQLYQHAVQYFLHVVKYEAQGDKAKQSIRAKCTEYLDRAEKLKEYLKNKEKKAQKPVKEGQPSPADEKGNDSDGEGESDDPEKKKLQNQLQGAIVIERPNVKWSDVAGLEGAKEALKEAVILPIKFPHLFTGKRTPWRGILLFGPPGTGKSYLAKAVATEANNSTFFSISSSDLVSKWLGESEKLVKNLFQLARENKPSIIFIDEIDSLCGSRSENESEAARRIKTEFLVQMQGVGVDNDGILVLGATNIPWVLDSAIRRRFEKRIYIPLPEPHARAAMFKLHLGTTQNSLTEADFRELGRKTDGYSGADISIIVRDALMQPVRKVQSATHFKKVRGPSRADPNHLVDDLLTPCSPGDPGAIEMTWMDVPGDKLLEPVVSMSDMLRSLSNTKPTVNEHDLLKLKKFTEDFGQEG
modifications: LD655 maleimide dye on the cysteine introduced at position 2 (labelled during the purification)
